The results in this text go back to paper PMC4466232.

Test [1] deals with MVM capsid protein VP2 (stably expressed in mouse fibroblasts, MF-VPs) (Minute Virus of Mice, prototype strain (MVMp)). In words: cross-linking; clarified cell homogenates in HNEM buffer (50 mM Hepes pH 8.0, 150 mM NaCl, 2 mM MgCl2, 1 mM EDTA) cross-linked with 10 mM dimethyl suberimidate (DMS), 10 min at 20°C; 5% SDS-PAGE and Western blot with the α-VPs antibody; MF-VPs quiescent by serum starvation (G0) or 8 h after serum addition (S); HF-VPs at hours after release of density arrest (G1).

The target in test [2] is MVM capsid protein VP2 (stably expressed in human fibroblasts, HF-VPs) (Minute Virus of Mice, prototype strain (MVMp)). The description is as above.

The stoichiometry N is a count of units in the complex or per binding partner. The substance “MVM capsid protein VP2 (stably expressed in mouse fibroblasts, MF-VPs) (natural protein)” gave a stoichiometry N in test [1] of 3.
Consider “MVM capsid protein VP2 (stably expressed in human fibroblasts, HF-VPs) (natural protein)”, for which the stoichiometry N in test [2] was 3.
